In the supplement of paper PMC10724198:
± gives the standard deviation of the averaged measurements.

system: Saccharomyces cerevisiae; assay: protein stability index of tFT-peptide fusion (C-terminal peptide) (PSI (0-1 scale)); higher = more stable (slower turnover); conditions: genetic background: wild type; temperature: 30 C
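Also: PSI is a weighted mean of sequencing reads over stability bins, variants kept only with over 10 reads, mCherry proximal and sfGFP distal, peptide attached via GGGS linker.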

| Sequence | protein stability index |
| --- | --- |
| LHPPPPPPALTP | 0.729 ± 0.068 |
| GGYLLAGEGTFA | 0.702 ± 0.0094 |
| PPPRPPLALSPP | 0.646 ± 0.032 |
| KVVSGLKSGPVQ | 0.677 ± 0.055 |
| WLFDFECRCILG | 0.65 ± 0.11 |
| HVALPAFKQLSG | 0.746 ± 0.051 |
| SWVGHGIPPWHM | 0.729 ± 0.027 |
| NELRREVLEEDL | 0.657 ± 0.0085 |
| PLPIHSHPPPVP | 0.615 ± 0.0068 |
| GSGGSGLLLVEW | 0.763 ± 0.02 |
| FLFRSFACALPS | 0.522 ± 0.0081 |
| GQEAGRERNNWQ | 0.694 ± 0.011 |
| RIVLGCSVVLRG | 0.615 ± 0.012 |
| GVVGGGGEAWRE | 0.794 ± 0.038 |
| PPTPSPAPSPAP | 0.601 ± 0.011 |
| EKKKKKKKKKKK | 0.7721 ± 0.003 |
| GPTFPPGLPSSL | 0.695 ± 0.09 |
| AVCSLTLGFGWW | 0.755 ± 0.034 |
| ACVRVVRLGCGW | 0.616 ± 0.063 |
| VIMGRGGGNVGG | 0.701 ± 0.053 |
| PPPPSLPPPSRP | 0.7125 ± 0.0063 |
| LLHCPSRGFLFS | 0.851 ± 0.17 |
| KGKKTTKTDAKK | 0.612 ± 0.061 |
| GSSAEGKALTES | 0.668 ± 0.053 |
| DGGVPGVMVVGE | 0.644 ± 0.024 |
| WMSLLEFGSLCG | 0.748 ± 0.15 |

| Sequence | protein stability index |
| --- | --- |
| RGLRIRFKKIDK | 0.704 ± 0.078 |
| IRIKLTYYKSYL | 0.678 ± 0.13 |
| NAKQVYVSVMTR | 0.5 ± 0.063 |
| LSFFYLLSSYFL | 0.62 ± 0.019 |
| PPLSPPLPPPPS | 0.7188 ± 0.0062 |
| LWVPPRSGRFGG | 0.681 ± 0.014 |
| GGGPGGWGGRGR | 0.6449 ± 0.0052 |
| AHSPPTRISPTH | 0.75 ± 0.097 |
| KKQRKRTKRKRK | 0.693 ± 0.048 |
| HPPLPLPCAFPP | 0.7 ± 0.033 |
| WGYWGGVMGLEE | 0.738 ± 0.043 |
| LPPPSPPPPPSP | 0.68 ± 0.028 |
| VTMQEKTCQLEA | 0.705 ± 0.1 |
| KTKSKNGNQRAT | 0.711 ± 0.025 |
| LAPLRGHDHSRA | 0.6638 ± 0.0055 |
| SYRNRTEHPKLP | 0.74 ± 0.036 |
| ICLLGTSSQRRD | 0.705 ± 0.0077 |
| EKWMRYLARCDI | 0.6882 ± 0.0012 |
| EVRSDSFFKCEG | 0.6606 ± 0.0046 |
| TRRLEFPEPPMS | 0.708 ± 0.061 |
| CWSCLRGYRFQT | 0.664 ± 0.028 |
| APPPFLCSPFVA | 0.698 ± 0.0092 |
| TNKRKNIRTKQR | 0.638 ± 0.037 |
| TCTDTCIRGSRL | 0.77 ± 0.033 |
| SPFPAPCVFPSR | 0.761 ± 0.1 |
| LIGTAPGITGFN | 0.661 ± 0.011 |

| Sequence | protein stability index |
| --- | --- |
| WVTKGLYIMSTK | 0.663 ± 0.11 |
| FSGSSFNGLCSF | 0.701 ± 0.018 |
| RRRENAKENEIK | 0.812 ± 0.13 |
| GRYYVPGLAALV | 0.653 ± 0.0085 |
| FRWLLVAGGWGE | 0.486 ± 0.024 |
| PPPDKTPERRPC | 0.644 ± 0.054 |
| ISLRELNEVCRS | 0.668 ± 0.029 |
| PPPPRDPLPLPR | 0.677 ± 0.018 |
| QRCAVRSSFYVL | 0.641 ± 0.059 |
| GASLFSEVMARE | 0.688 ± 0.027 |
| QGLPLCVVQALQ | 0.605 ± 0.042 |
| GNFGFKVELGVR | 0.686 ± 0.031 |
| DSRSPSTTLIPL | 0.6623 ± 0.0018 |
| RRCDKTMSEGFF | 0.692 ± 0.078 |
| TQARDTIPGAKV | 0.678 ± 0.02 |
| PSELGAGYVMGG | 0.6936 ± 0.0034 |
| FVIPLLRWGRTP | 0.663 ± 0.053 |
| SPSSFLLSPPIP | 0.764 ± 0.071 |
| VIMNPGNDFLQK | 0.702 ± 0.011 |
| APPAHPARSHTP | 0.69 ± 0.019 |
| HPVPSPSLRPPP | 0.716 ± 0.072 |
| RDLGPSAISMTV | 0.628 ± 0.043 |
| ALCQEFAALEPR | 0.726 ± 0.051 |
| SSPSPPSPPLPP | 0.735 ± 0.0095 |
| FKLVPCLGPSHF | 0.741 ± 0.047 |
| RRRREKEKRSQE | 0.734 ± 0.14 |

| Sequence | protein stability index |
| --- | --- |
| FGLARGMFFLTV | 0.629 ± 0.056 |
| PILPPLVPSSRL | 0.769 ± 0.07 |
| RILPPPPPPSSR | 0.754 ± 0.026 |
| LSQPRDGMRWCA | 0.6191 ± 0.0035 |
| ARGGGRSEGGEG | 0.7151 ± 0.0024 |
| SRGAFGPCEFFL | 0.712 ± 0.0076 |
| CRRSCPRLTVTR | 0.746 ± 0.015 |
| ESEGSGVGACGG | 0.681 ± 0.02 |
| KRKREKKEKADA | 0.66 ± 0.043 |
| VCRVGGVMAGDT | 0.669 ± 0.049 |
| RACRISSIRVGI | 0.651 ± 0.014 |
| LPTLFPSAPSAI | 0.664 ± 0.05 |
| AQFFQALATYPI | 0.677 ± 0.022 |
| KTKNIKTKDKPE | 0.673 ± 0.024 |
| LPPSSSPSYIFS | 0.744 ± 0.047 |
| NKDKNDDRKLLG | 0.723 ± 0.12 |
| QRGLERVVVGGI | 0.667 ± 0.016 |
| QLMAYFDITYSS | 0.723 ± 0.045 |
| PPALLAPAAPLP | 0.652 ± 0.07 |
| SGTRDELVFVAV | 0.6755 ± 0.0061 |
| GRLIGICECLSV | 0.622 ± 0.017 |
| SVCSRVLILSPF | 0.657 ± 0.068 |
| FLFWFLFFCSSR | 0.49 ± 0.022 |
| CSFCVLGPGLHL | 0.672 ± 0.047 |
| QVFFDTSDHRMG | 0.72 ± 0.029 |
| QSPSHSYLCHLF | 0.583 ± 0.097 |

| Sequence | protein stability index |
| --- | --- |
| PPPTPRRPPCHT | 0.668 ± 0.045 |
| LCILIFLFRCIL | 0.551 ± 0.036 |
| VEASRSCTKLDG | 0.675 ± 0.02 |
| PGATSAIPPPFT | 0.738 ± 0.03 |
| SCHEARWEVVMW | 0.771 ± 0.17 |
| AVVRVSLPSTVV | 0.667 ± 0.059 |
| TWRWVGGRWSGL | 0.5601 ± 0.0026 |
| AAGAGAPRRPLL | 0.683 ± 0.02 |
| SPCPLTVAPIIP | 0.644 ± 0.056 |
| DRYSVGCGVSEG | 0.7038 ± 0.002 |
| CPPCPSAPPPLP | 0.752 ± 0.07 |
| DPISNVDVTKIR | 0.6571 ± 0.0044 |
| NSVWPGYPCTHP | 0.639 ± 0.03 |
| DRMYDELFTKCC | 0.619 ± 0.031 |
| PVLFSPPSPFFP | 0.708 ± 0.083 |
| RPGGRLLVWVGG | 0.55 ± 0.038 |
| KDIVSQEEHAPL | 0.678 ± 0.036 |
| LPHTRPLPPRVD | 0.704 ± 0.015 |
| KTKKTKRRHKAE | 0.662 ± 0.022 |
| CWGLRVMGGTGR | 0.702 ± 0.013 |
| LRMWFGLMRPDA | 0.66 ± 0.034 |
| PSLPFPPSPPPC | 0.7067 ± 0.0022 |
| FGGGGGGGLLWC | 0.739 ± 0.071 |
| CPPPPPPPRPPP | 0.639 ± 0.0095 |
| RHLESERAPLPG | 0.688 ± 0.018 |
| APPPPHSSHPPP | 0.713 ± 0.027 |

| Sequence | protein stability index |
| --- | --- |
| GRVKEKCKRRYR | 0.657 ± 0.034 |
| VMGFCDWLGVFL | 0.728 ± 0.012 |
| PPPPPLPLCRRP | 0.756 ± 0.06 |
| GAGGAGAGAGGG | 0.639 ± 0.0092 |
| GGSGVHRHRPFG | 0.666 ± 0.055 |
| SSPLPPAPPTAS | 0.587 ± 0.1 |
| WVVGCVRGVWGA | 0.712 ± 0.051 |
| VHRRRVSVGGGA | 0.721 ± 0.05 |
| SPWERTEMTFPR | 0.822 ± 0.18 |
| PPPLTVPLLSPP | 0.662 ± 0.046 |
| KETNIKKRRARG | 0.6458 ± 0.0021 |
| SGKIDKGAIAIS | 0.663 ± 0.049 |
| LPLPPSFVHLPF | 0.732 ± 0.05 |
| PPPLCLHAPFPP | 0.626 ± 0.045 |
| PSPLTPAAPFPL | 0.674 ± 0.056 |
| HPPPTHAQGRLV | 0.671 ± 0.021 |
| PSRPTLLTPLSP | 0.695 ± 0.045 |
| CKQIESRLLEGQ | 0.64 ± 0.024 |
| HHPKTCHHLSRA | 0.6853 ± 0.0037 |
| GVLEEVGPGLFL | 0.78 ± 0.14 |
| LPSPSSSPPPFP | 0.7274 ± 0.0013 |
| PPSSGPPSPSSL | 0.578 ± 0.095 |
| TLIEWSAKGCRR | 0.693 ± 0.047 |
| EGVGGGRWCGRG | 0.666 ± 0.055 |
| KVDRREGSRGGG | 0.6816 ± 0.004 |
| TLVALGFIYASG | 0.572 ± 0.0048 |

| Sequence | protein stability index |
| --- | --- |
| QSAAPISTPSLC | 0.694 ± 0.012 |
| NKKDCFRNRKWE | 0.593 ± 0.03 |
| PPPSRTPPLNPR | 0.741 ± 0.096 |
| VGWGWGGGVVLV | 0.692 ± 0.0098 |
| TRIRLQKNVITL | 0.683 ± 0.014 |
| VRRAGVGEGITG | 0.671 ± 0.052 |
| VGVPFLVVGVGV | 0.583 ± 0.00081 |
| PPTCRLQPYSRN | 0.759 ± 0.013 |
| VLCIYKLSQVRL | 0.654 ± 0.049 |
| SIDGFAFCVGGV | 0.737 ± 0.058 |
| PRAGPLAALSLS | 0.695 ± 0.026 |
| ARADIQIACIIE | 0.6418 ± 0.00089 |
| VFLRGSVLGLCI | 0.606 ± 0.034 |
| LAAWQPTSYASV | 0.592 ± 0.092 |
| TVMSDCQTDQAS | 0.657 ± 0.065 |
| TFSWISGKPRHT | 0.679 ± 0.041 |
| CTRRRLLVPRVK | 0.599 ± 0.028 |
| CCARRWLNFEYW | 0.72 ± 0.032 |
| FGNVLISMRNRL | 0.834 ± 0.11 |
| NIKPEDRNSTNA | 0.633 ± 0.087 |
| KTKKKNKKDQKM | 0.6661 ± 0.0047 |
| PPDTPRTQKADT | 0.755 ± 0.029 |
| PPTSHHHYHRQQ | 0.695 ± 0.053 |
| IRPPVLTDAIHS | 0.708 ± 0.013 |
| IVRNDRSGPWGD | 0.756 ± 0.12 |
| SARPDLAERHRP | 0.673 ± 0.013 |

| Sequence | protein stability index |
| --- | --- |
| PFVGSSPFPLCL | 0.645 ± 0.042 |
| GFRCTVWGRAVI | 0.637 ± 0.052 |
| GMPTANMYLLLQ | 0.636 ± 0.017 |
| RLLHLMCFCSGP | 0.644 ± 0.031 |
| LPRFRNRFPRRW | 0.664 ± 0.036 |
| RPPLLSPSPPPP | 0.649 ± 0.014 |
| VWSILSCRTRLL | 0.503 ± 0.02 |
| GRVLSEAWSEAF | 0.664 ± 0.054 |
| SPPLLHLSNSRH | 0.654 ± 0.059 |
| GDMVRVSYRGRR | 0.674 ± 0.053 |
| RGGAGGRQGCGG | 0.746 ± 0.043 |
| PSLPLSPLSDSR | 0.717 ± 0.032 |
| LSPSDSPSPPAS | 0.6499 ± 0.0016 |
| PLGPSTQHPLSI | 0.687 ± 0.025 |
| RLFSSSCLPFPP | 0.781 ± 0.16 |
| ELLTVQLHKAAR | 0.706 ± 0.0076 |
| GRSIGVGGGGRG | 0.719 ± 0.059 |
| FAVLGGGVGGGG | 0.683 ± 0.043 |
| IIGPFDSYVYGL | 0.7 ± 0.0071 |
| SRFLTPLPLAMF | 0.592 ± 0.018 |
